In patent US20110064726A1 (published 2011):

How the values were obtained:
[1] = biological target: T1, cynomolgus monkey IgE (cynomolgus monkey); assay: capture ELISA, antibody coated; Test 1, Cyno 5 serum
T1 construct: serum was used as the source of IgE; also called cynomolgus IgE; cyno IgE
Method: (§1) Wells were washed once with 150 μL/well wash buffer (0.05% Tween-20, Sigma, Cat. No. P7949/TBS) then blocked with 150 μL/well 1% BSA (Sigma, Cat. No. A7030) in TBS for 2 hours at room temperature. Wells were washed twice with 150 μL wash buffer. 50 μL human (in-house donors) or cynomolgus serum (Harlan Sera-Lab Ltd, Loughborough) was added from neat to at least 1:16 dilution in 1% BSA/0.05% Tween-20/TBS diluent buffer. […] Wells were incubated for 2 hours at 25° C. before washing (3×150 μLwash buffer). […] Wells were incubated for 1 hour at 25° C. then washed (3×150 μL wash buffer). Streptavidin-HRP (Amersham Bioscience, Cat. No. RPN 1231) diluted 1:1000 in diluent buffer was added to all wells and incubated for 45 minutes at room temperature. Wells were washed (3×150 μL wash buffer). […] OPD (Dako, Cat. No. S2045) was added to all wells and the color allowed to develop for 10 minutes before stopping the reaction with 50 μl 0.6M H₂SO₄ and the absorbance measured at 490 nm.

[2] = biological target: T1, cynomolgus monkey IgE; assay: capture ELISA, antibody coated; Test 1, Cyno 4 serum
Method: as §1

[3] = biological target: T1, cynomolgus monkey IgE; assay: capture ELISA, antibody coated; Test 1, Cyno 2 serum
Method: as §1

[4] = biological target: T2, human IgG1 (human, UniProt P01857-1 1-330 = IgG part); assay: ELISA, immunoglobulin coated at 4 µg/mL, anti-human IgG2 detection
T2 construct: bought preparation coated on the ELISA plate; not shown: bought immunoglobulin, light chain not described
T2 sequence (P01857 other isoform, or with tags, fused parts or gaps): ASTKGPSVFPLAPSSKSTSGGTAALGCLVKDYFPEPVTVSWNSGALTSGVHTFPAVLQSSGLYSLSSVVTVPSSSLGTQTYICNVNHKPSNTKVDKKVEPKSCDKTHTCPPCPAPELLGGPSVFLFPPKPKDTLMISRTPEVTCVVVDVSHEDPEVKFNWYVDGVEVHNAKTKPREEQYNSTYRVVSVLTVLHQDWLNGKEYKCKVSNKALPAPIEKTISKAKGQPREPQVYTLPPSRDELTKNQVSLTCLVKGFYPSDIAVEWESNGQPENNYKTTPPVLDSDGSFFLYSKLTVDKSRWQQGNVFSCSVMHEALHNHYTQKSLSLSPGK
Method: (§2) Wells were washed 3× with 150 μL wash buffer (0.05% Tween-20 (Sigma, Cat. No. P7949)/PBS) then blocked with 150 μL/well blocking buffer (2.5% BSA (Sigma, Cat. No. A7030)/PBS) for 2 hours at room temperature. Wells were washed 3× with 150 μL wash buffer/well. […] Antibodies were diluted in diluent buffer (PBS/1% BSA/0.05% Tween-20) and this was added to blank control wells (duplicate wells for each secondary antibody used). Antibodies were incubated for 2 hours at room temperature. Wells were washed 3× with 150 μL wash buffer/well. Binding of control antibodies to immunoglobulin was detected with anti-mouse IgG-HRP conjugate (Sigma, Cat. No. A4416) diluted 1:8000 in diluent buffer. 50 μL/well was added to control antibody and blank wells. Wells were incubated for 1 hour at room temperature, then washed 3× with 150 μL wash buffer/well. 50 μl OPD (Dako, Cat. No. […] Wells were incubated for 1 hour at room temperature then washed 3× with 150 μL wash buffer/well. Streptavidin-HRP (Amersham Bioscience, Cat. No. RPN 1231) diluted 1:2000 in diluent buffer was added to all wells and incubated for 45 minutes at room temperature. Wells were washed (3×150 μL wash buffer).

[5] = biological target: T3, human IgG3 (human, UniProt P01860-1 1-377); assay: as above
T3 construct: bought preparation coated on the ELISA plate; not shown: bought immunoglobulin, light chain not described
T3 sequence (P01860 other isoform, or with tags, fused parts or gaps): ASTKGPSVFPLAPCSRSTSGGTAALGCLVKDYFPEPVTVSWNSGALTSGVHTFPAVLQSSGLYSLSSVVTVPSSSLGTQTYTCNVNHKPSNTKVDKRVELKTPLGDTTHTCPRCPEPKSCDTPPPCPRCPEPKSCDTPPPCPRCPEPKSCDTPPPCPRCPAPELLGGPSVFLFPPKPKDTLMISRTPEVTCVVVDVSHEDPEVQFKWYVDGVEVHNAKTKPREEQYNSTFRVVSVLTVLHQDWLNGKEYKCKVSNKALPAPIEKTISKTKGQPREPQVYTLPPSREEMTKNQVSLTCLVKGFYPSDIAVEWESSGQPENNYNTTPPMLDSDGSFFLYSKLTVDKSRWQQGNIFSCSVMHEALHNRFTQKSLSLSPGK
Method: as §2

[6] = biological target: T4, human IgA (human); assay: as above
T4 construct: bought preparation coated on the ELISA plate
Method: as §2

[7] = biological target: T1, cynomolgus monkey IgE; assay: capture ELISA, antibody coated; Test 1, Cyno 1 serum
Method: as §1

[8] = biological target: T1, cynomolgus monkey IgE; assay: capture ELISA, antibody coated; Test 1, Cyno 7 serum
Method: as §1

[9] = biological target: T1, cynomolgus monkey IgE; assay: capture ELISA, antibody coated; Test 1, Cyno 6 serum
Method: as §1

[10] = biological target: T1, cynomolgus monkey IgE; assay: capture ELISA, antibody coated; Test 2, Cyno 7 serum
Method: as §1

[11] = biological target: T1, cynomolgus monkey IgE; assay: capture ELISA, antibody coated; Test 2, Cyno 4 serum
Method: as §1

[12] = biological target: T1, cynomolgus monkey IgE; assay: capture ELISA, antibody coated; Test 2, Cyno 1 serum
Method: as §1

[13] = biological target: T1, cynomolgus monkey IgE; assay: capture ELISA, antibody coated; Test 2, Cyno 5 serum
Method: as §1

[14] = biological target: T1, cynomolgus monkey IgE; assay: capture ELISA, antibody coated; Test 2, Cyno 2 serum
Method: as §1

[15] = biological target: T1, cynomolgus monkey IgE; assay: capture ELISA, antibody coated; Test 1, Cyno 3 serum
Method: as §1

[16] = biological target: T1, cynomolgus monkey IgE; assay: capture ELISA, antibody coated; Test 2, Cyno 8 serum
Method: as §1

[17] = biological target: T1, cynomolgus monkey IgE; assay: capture ELISA, antibody coated; Test 2, Cyno 3 serum
Method: as §1

[18] = biological target: T1, cynomolgus monkey IgE; assay: capture ELISA, antibody coated; Test 2, Cyno 6 serum
Method: as §1

[19] = biological target: T5, human IgE (full length human immunoglobulin E) (human, UniProt P01854 1-546); assay: serum free IgE depletion ELISA; DIN 0623 experiment 2, initial free IgE 133 ng/mL
T5 sequence (P01854 whole entry): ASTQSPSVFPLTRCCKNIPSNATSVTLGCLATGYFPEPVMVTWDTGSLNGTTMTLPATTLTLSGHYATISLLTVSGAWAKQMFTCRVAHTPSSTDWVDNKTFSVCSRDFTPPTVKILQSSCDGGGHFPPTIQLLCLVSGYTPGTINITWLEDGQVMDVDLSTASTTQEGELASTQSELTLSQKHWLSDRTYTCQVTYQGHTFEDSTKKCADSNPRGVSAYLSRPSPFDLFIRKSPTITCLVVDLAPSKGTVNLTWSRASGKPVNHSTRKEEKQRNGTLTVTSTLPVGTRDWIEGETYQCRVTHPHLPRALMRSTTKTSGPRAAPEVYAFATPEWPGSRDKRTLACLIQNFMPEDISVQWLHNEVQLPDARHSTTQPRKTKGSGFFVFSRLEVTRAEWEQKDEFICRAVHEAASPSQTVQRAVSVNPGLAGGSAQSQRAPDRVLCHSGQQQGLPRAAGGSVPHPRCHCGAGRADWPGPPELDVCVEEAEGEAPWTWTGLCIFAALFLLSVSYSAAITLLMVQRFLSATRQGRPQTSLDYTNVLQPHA

[20] = biological target: T5, human IgE (full length human …); assay: serum free IgE depletion ELISA; DIN 0461, initial free IgE 80 ng/mL
[21] = biological target: T5, human IgE (full length human …); assay: ELISA, immunoglobulin coated at 4 µg/mL, anti-human IgG2 detection
Method: as §2

[22] = biological target: T5, human IgE (full length human …); assay: serum free IgE depletion ELISA; DIN 0011 experiment 2, initial free IgE 326 ng/mL
[23] = biological target: T5, human IgE (full length human …); assay: serum free IgE depletion ELISA; DIN 0632 experiment 2, initial free IgE 289 ng/mL
[24] = biological target: T5, human IgE (full length human …); assay: serum free IgE depletion ELISA; DIN 0347, initial free IgE 221 ng/mL
[25] = biological target: T5, human IgE (full length human …); assay: serum free IgE depletion ELISA; DIN 0321 experiment 2, initial free IgE 265 ng/mL
[26] = biological target: T5, human IgE (full length human …); assay: serum free IgE depletion ELISA; DIN 0155, initial free IgE 93 ng/mL
[27] = biological target: T5, human IgE (full length human …); assay: serum free IgE depletion ELISA; DIN 0451 experiment 2, initial free IgE 534 ng/mL
[28] = biological target: T5, human IgE (full length human …); assay: serum free IgE depletion ELISA; DIN 0591, initial free IgE 152 ng/mL
[29] = biological target: T5, human IgE (full length human …); assay: serum free IgE depletion ELISA; DIN 0649, initial free IgE 93 ng/mL

IgE concentration detected [1] [ng/mL]	IgE concentration detected [2] [ng/mL]	IgE concentration detected [3] [ng/mL]	A290 nm [4] [absorbance]	A290 nm [5] [absorbance]	A290 nm [6] [absorbance]	IgE concentration detected [7] [ng/mL]	IgE concentration detected [8] [ng/mL]	IgE concentration detected [9] [ng/mL]	IgE concentration detected [10] [ng/mL]	IgE concentration detected [11] [ng/mL]	IgE concentration detected [12] [ng/mL]	IgE concentration detected [13] [ng/mL]	IgE concentration detected [14] [ng/mL]	IgE concentration detected [15] [ng/mL]	IgE concentration detected [16] [ng/mL]	IgE concentration detected [17] [ng/mL]	IgE concentration detected [18] [ng/mL]	Binder	other results
37	0	0	0.07	0.05	0.04	30	0	3										recombinant 5.396.1 (antibody, human IgG2, kappa, V domains shown, human IgG2 kappa, expressed in 293 Freestyle cells; also called 5.396.1 (recombinant)) VH: QVQLQQWGAGLLKPSETLSLTCAVYGGSFSGYYWSWIRQPPGKGLEWIGEIHHSGSTNYNPSLKSRVTISVDTSKNQFSLKLSSVTAADTAVYYCARDNWNDSFYYYYGMDVWGQGTTVTVSS VL: DIQMTQSPSSLSASVGDRVTITCRASQGISNHLAWFQQKPGKAPKSLIYAASSLQSGVPSKFSGSGSGTDFTLTISSLQPEDFATYYCQQYNRHPFTFGPGTKVDIKR	
57	0	0	0.08	0.05	0.04	41	0	0	0	0	57	102	39	39	0	53	0	5.396.1 Hc-S103N Lc-K61R (antibody, human IgG2, kappa, V domains shown, human IgG2 kappa; the entries already hold the substitutions S103N (Hc) and K61R (Lc); also called 5.396.1 (S103N/K61R); 5.396.1 N/R) VH: QVQLQQWGAGLLKPSETLSLTCAVYGGSFSGYYWSWIRQPPGKGLEWIGEIHHSGSTNYNPSLKSRVTISVDTSKNQFSLKLSSVTAADTAVYYCARDNWNDNFYYYYGMDVWGQGTTVTVSS VL: DIQMTQSPSSLSASVGDRVTITCRASQGISNHLAWFQQKPGKAPKSLIYAASSLQSGVPSRFSGSGSGTDFTLTISSLQPEDFATYYCQQYNRHPFTFGPGTKVDIKR	
			0.06	0.06	0.05				0	25	170	420	199		36	178	39	5.948.1 Hc-H100Y (antibody, human IgG2, kappa, V domains shown, human IgG2 kappa; the heavy chain entry already holds H100Y; also called 5.948.1 H100Y; 5.948.1 (H100Y)) VH: QVQLVQSGAEVKKPGASVKVSCKASGYTFTSYDINWVRQATGQGLEWMGWMDPNSGNTGYAQKFQGRVTMTRNTSISTAYMELSSLRSEDTAVYYCARGYYDSDGYYSFSGMDVWGQGTTVTVSS VL: not shown	IC25ng/mL [19]: 0.76 µg/mL; IC25ng/mL [20]: 0.34 µg/mL; A290 nm [21]: 1.05 absorbance; IC25ng/mL [22]: 2.96 µg/mL; IC25ng/mL [23]: 2.29 µg/mL; IC25ng/mL [24]: 1.33 µg/mL; IC25ng/mL [25]: 2.55 µg/mL; IC25ng/mL [26]: 0.34 µg/mL; IC25ng/mL [27]: 10.5 µg/mL; IC25ng/mL [28]: 0.55 µg/mL; IC25ng/mL [29]: 0.39 µg/mL
140	0	91	0.07	0.05	0.04	120	0	0						107				recombinant 6.605.1 (antibody, human IgG2, kappa, V domains shown, human IgG2 kappa; also called 6.605.1 (recombinant)) VH: QVHLVQSGAEVKMPGASVKVSCKASGYTFTSYGISWVRQAPGQGLEWMGWISAYNGNTNYAQKLQGRITMTTDTSTSTAYMDLRSLRSDDTAVYYCARDGDYYDPFDYWGQGTLVTVSS VL: DIQMTQSPSSLSASVGDRVTITCRTSQSISNWLNWYQQKPGKAPKLLIYGASTLKSGVPSRFSGSESGTDFTLTISSLQPEDFATYYCQQSYSTPPTFGQGTKVEIKR	
173	0	103	0.07	0.04	0.04	133	0							122				6.605.1 Hc-H3Q,M13K,D82E Lc-T25A,T53S (antibody, human IgG2, kappa, V domains shown, human IgG2 kappa; the entries already hold the substitutions; also called 6.605.1 (H3Q,M13K,D82E-T25A,T53S); 6.605.1 QKE/AS) VH: QVQLVQSGAEVKKPGASVKVSCKASGYTFTSYGISWVRQAPGQGLEWMGWISAYNGNTNYAQKLQGRITMTTDTSTSTAYMELRSLRSDDTAVYYCARDGDYYDPFDYWGQGTLVTVSS VL: DIQMTQSPSSLSASVGDRVTITCRASQSISNWLNWYQQKPGKAPKLLIYGASSLKSGVPSRFSGSESGTDFTLTISSLQPEDFATYYCQQSYSTPPTFGQGTKVEIKR	
